Experimental data reported in patent US20240043534A1 (UNIVERSITY OF CHICAGO, published 2024).

T1: C-terminal domain of the Zaire strain of Ebola virus nucleoprotein (EBOV NP^CT) (Ebola virus, Zaire strain (EBOV), UniProt P18272 641-739)
T1 construct: also called EBOV NT^CT; NP^CT EBOV Zaire
T1 sequence: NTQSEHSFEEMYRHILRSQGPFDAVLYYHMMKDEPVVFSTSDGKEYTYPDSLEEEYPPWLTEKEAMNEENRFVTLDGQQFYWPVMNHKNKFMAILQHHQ

B1: Protein GA1 (designed binder)
chain: TPAVTTYKLVINGRTLSGYTTTTAVDAATAEKVFKQYAYVHEVDGEWTYDDATKTFTVTEKPEKL
notes: also called pGA1; PGA1

Columns and labels:
[1] = target: T2, Fab^S (Herceptin Fab scaffold variant with Lc E123S; Lc aa 123-127 SQLKS); test: SPR
[2] = target: T2, Fab^S (Herceptin Fab scaffold variant …); test: SPR (preliminary results), Protein G variant against Fab scaffold
[3] = target: T3, Fab^H (Herceptin Fab scaffold with wt human kappa Lc; Lc aa 123-127 EQLKS); test: as above
T3 construct: also called Hkappa

[4] = target: T4, “Λ” Fab scaffold (4D5 scaffold with SEELQANK in the Lc region); test: as above
T4 construct: also called “Lambda” Fab scaffold

Protein GA1 = target: B1; test: SPR, Fab Lc variant as analyte on His-tag-immobilized GA1
[5] = target: T1, C-terminal domain of the Zaire strain …; test: SPR, Fab as analyte on His-tag-immobilized antigen

T4 sequence (light, as listed by the source): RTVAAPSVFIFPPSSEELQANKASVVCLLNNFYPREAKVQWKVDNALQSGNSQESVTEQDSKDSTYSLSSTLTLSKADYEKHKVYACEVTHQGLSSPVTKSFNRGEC

Row | Binder | Kd [2] [nM] | Kd [5] [nM] | also measured
1 | B1 | 100 | – | Kd [1]: ~50 nM
2 | Protein G D (designed binder, also called pGD; D 38IDMVSS43) TPAVTTYKLVINGRTLSGYTTTTAVDAATAEKVFKQIDMVSSVDGEWTYDDATKTFTVTEKPEKL | 80 | – | –
3 | Protein G F (designed binder, also called pGF; F 38YAFGNG43) TPAVTTYKLVINGRTLSGYTTTTAVDAATAEKVFKQYAFGNGVDGEWTYDDATKTFTVTEKPEKL | 60 | – | Kd [3]: 3 nM; Kd [4]: 50 nM
4 | Fab Lc scaffold variant ΔΔLKT (mutated; printed in Table 1 as AALKS) (Fab, V domains shown) VH: EVQLVESGGGLVQPGGSLRLSCAASGFNISYSSIHWVRQAPGKGLEWVASIYSYSGYTSYADSVKGRFTISADTSKNTAYLQMNSLRAEDTAVYYCARSYWYHVGSWHYTGMDYWGQGTLVTVSS VL: DIQMTQSPSSLSASVGDRVTITCRASQSVSSAVAWYQQKPGKAPKLLIYSASSLYSGVPSRFSGSRSGTDFTLTISSLQPEDFATYYCQQSSSSLITFGQGTKVEIKR | – | – | Kd (Protein GA1): 12 nM
5 | MJ6 EBOV LRT-Fab (Fab, V domains shown, also called Fab MJ6) VH: EVQLVESGGGLVQPGGSLRLSCAASGFNVYYYYIHWVRQAPGKGLEWVASISPYYGYTSYADSVKGRFTISADTSKNTAYLQMNSLRAEDTAVYYCARWSYDQSMSYKSGMDYWGQGTLVTVSS VL: DIQMTQSPSSLSASVGDRVTITCRASQSVSSAVAWYQQKPGKAPKLLIYSASSLYSGVPSRFSGSRSGTDFTLTISSLQPEDFATYYCQQYSYSLVTFGQGTKVEIKR | – | 0.7 | koff [5]: 0.001 s⁻¹
6 | MJ20 RESTV LRT-Fab (Fab, V domains shown, also called Fab MJ20) VH: EVQLVESGGGLVQPGGSLRLSCAASGFNISYSSIHWVRQAPGKGLEWVASIYSYSGYTSYADSVKGRFTISADTSKNTAYLQMNSLRAEDTAVYYCARSYWYHVGSWHYTGMDYWGQGTLVTVSS VL: DIQMTQSPSSLSASVGDRVTITCRASQSVSSAVAWYQQKPGKAPKLLIYSASSLYSGVPSRFSGSRSGTDFTLTISSLQPEDFATYYCQQSSSSLITFGQGTKVEIKR | – | 3.4 | –
